Results on 167 variants are retold here after the RNAGym collection of RNA variant scans (doi:10.1073/pnas.2313332121).

This sample holds only a part of the variants without activity.

Sequences and labels used below:
B1: TPR 5TU (parent)
chain: GGAUCUUCUCGAUCUAACAAAAAAGACAAAUCUGCCACAAAGCUUGAGAGCAUCUUCGGAUGCAGAGGCGGCAGCCUUCGGUGGCGCGAUAGCGCCAACGUUCUCAACUAUGACACGCAAAACGCGUGCUCCGUUGAAUGGAGUUUAUCAUG

Variants of B1 are the subject of the data set. As to the kind of experiment: polymerase ribozyme fitness, log enrichment relative to wild type (log ratio); higher = more active; in vitro selection for triplet polymerase activity. In a few lines:
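Mutant libraries for each subunit of a heterodimeric triplet polymerase ribozyme were made by PCR and then transcribed. Each library underwent one round of in vitro selection in triplicate: annealing with a biotinylated primer, the partner subunit and triplets, frozen incubation at −7 °C, gel excision of extended constructs, streptavidin-bead capture and RT-PCR. Input and output libraries were Illumina-sequenced, and only genotypes with ≥10 input reads and ≥1 read per output were kept. Fitness is the logarithm, base 2, of genotype enrichment over wild-type enrichment, computed from inverse-variance-weighted replicate averages.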
With A89U C99G A142U, the “polymerase ribozyme fitness (log ratio)” value was -2.38.

For U90A U130A, the “polymerase ribozyme fitness (log ratio)” value was at most -4.2.

A89U C96U C118U A122G U139G: the “polymerase ribozyme fitness (log ratio)” value was -0.0743. Under C87G A113C A138U U146C stands at most -4.2; under G88A C93A C123U G126U G133U G140U, at most -4.2.

Regarding C93A A107G, the “polymerase ribozyme fitness (log ratio)” value was at most -4.2.

Take A89G G117U: the “polymerase ribozyme fitness (log ratio)” value is -0.974. The figure for G94C A122C is -0.988; for U90A C95U it is at most -4.2. On to U90A C99U U111C, for which the “polymerase ribozyme fitness (log ratio)” value was -4.13.

With A91U A147U, the “polymerase ribozyme fitness (log ratio)” value is -3.99. The figure for G88A C95A C123A is at most -4.2; for C87U U102C A147C it is -2.24; for C93A C132G A138C G140U G141C it is at most -4.2. Consider G94C A115U, for which the “polymerase ribozyme fitness (log ratio)” value is -2.98. Under G94U C123G G141A U146C stands -2.83. For A89C A150C, the “polymerase ribozyme fitness (log ratio)” value is -3.81. With G92A A138C U148C, the “polymerase ribozyme fitness (log ratio)” value is at most -4.2. A89G C93A: the “polymerase ribozyme fitness (log ratio)” value was -3.94. Under C87U C96U stands -1; under C87U C96A, -1.2; under G88U A121C, at most -4.2.

Regarding C87U C105U, the “polymerase ribozyme fitness (log ratio)” value was -2.21. The figure for U90C U148G is at most -4.2. G94A C149U: the “polymerase ribozyme fitness (log ratio)” value is -1.24. The figure for G88A C96G is -3.74; for A91G U144A it is -3.08; for C93U A98C it is -0.981. Under C93U A121C G140C stands at most -4.2; under C87A G126A, -4.04; under G92A A98G, -3. Consider C87U C116U C118A, for which the “polymerase ribozyme fitness (log ratio)” value is -0.495. On to C93U C149A, for which the “polymerase ribozyme fitness (log ratio)” value is -4.05.

As to A89C G124A, the “polymerase ribozyme fitness (log ratio)” value is -1.59. Under G94C C96U G136A G140A stands at most -4.2. With C87G G92C C105U, the “polymerase ribozyme fitness (log ratio)” value turned out to be 0.371. Consider C93A C95A U104A G141C, for which the “polymerase ribozyme fitness (log ratio)” value is at most -4.2.

Take A89C G92U: the “polymerase ribozyme fitness (log ratio)” value is -1.92. With C93G G141U, the “polymerase ribozyme fitness (log ratio)” value is -2.01. The figure for G92A A98C G133C A142U is at most -4.2; for C93U C114U it is -2.54.

As for G94A A120C, the “polymerase ribozyme fitness (log ratio)” value is -0.523. As for C87G C93U C99A U134G G141U, the “polymerase ribozyme fitness (log ratio)” value was at most -4.2.

Regarding C95U C96U C118U C125A C129G, the “polymerase ribozyme fitness (log ratio)” value is at most -4.2.

Regarding G94C U135A G141A, the “polymerase ribozyme fitness (log ratio)” value was -2.22. The figure for G88U G124A G128U U135C is at most -4.2; for G92U C105U A107U A110C A138C it is at most -4.2. Under C87G C114G A137G stands at most -4.2; under C93G C118U C123U, -3.29; under G92C A138G G140A, at most -4.2.

Consider G92A C103A G126A, for which the “polymerase ribozyme fitness (log ratio)” value is -3.74. Regarding C87U G136C, the “polymerase ribozyme fitness (log ratio)” value is -3.65. Turning to C95G A98G, the “polymerase ribozyme fitness (log ratio)” value is -1.57. For the variant A91U A106G, the “polymerase ribozyme fitness (log ratio)” value was -4.01. Under A89C G117U stands -0.705. Under C95U C96A stands -1.02.

Consider C93G C132G, for which the “polymerase ribozyme fitness (log ratio)” value was at most -4.2.

With U90G C116G, the “polymerase ribozyme fitness (log ratio)” value was -3.78. The figure for A89U U90C G94U C114U G117U G133U is at most -4.2. The figure for C93U A119G C123U U135G is -4.18; for C93G G140U it is at most -4.2. The figure for C93U C118A U144G is -1.06. For the variant C87U C116G G152U, the “polymerase ribozyme fitness (log ratio)” value is -3.11. As to A89U A150C, the “polymerase ribozyme fitness (log ratio)” value is -3.66. Under G94A U101C stands -0.823; under C93A A106C, -2.63; under A91U G124U C131G, at most -4.2. Take G92U C103U G136U: the “polymerase ribozyme fitness (log ratio)” value is -3.43. Turning to C87G C99U C116G, the “polymerase ribozyme fitness (log ratio)” value is -3.37. With C87U C105U A107U, the “polymerase ribozyme fitness (log ratio)” value is -3.79. The figure for G88C G117C A138U G143C is at most -4.2; for G92A A97G A122U U148C it is -3.63; for C87A A119U A147C it is -4.05. On to G94A U101G U148A, for which the “polymerase ribozyme fitness (log ratio)” value is -4.03. As to C93U A137G C149U, the “polymerase ribozyme fitness (log ratio)” value is -2.47. The figure for G92A C116U is -2.29. As to G92A C116G, the “polymerase ribozyme fitness (log ratio)” value is -2.6. Under C93U A137G stands -3.18. G92A C125A U134G: the “polymerase ribozyme fitness (log ratio)” value was -3.58.

In the case of A91C U144C, the “polymerase ribozyme fitness (log ratio)” value was -4.19. Regarding A89G C95U A142C, the “polymerase ribozyme fitness (log ratio)” value was -2.81. As to C87U U104G, the “polymerase ribozyme fitness (log ratio)” value is -0.825. For G92A G141C A147U, the “polymerase ribozyme fitness (log ratio)” value is -3.44. On to C87G A91C U127G A142U, for which the “polymerase ribozyme fitness (log ratio)” value was at most -4.2. Under A91U U134G A137U stands at most -4.2; under A91U A120U, at most -4.2; under C93U C95U, -2.43.

As for C93G U146G, the “polymerase ribozyme fitness (log ratio)” value was -3.41. Under G94C A150U stands 1.09. As to G94C U127C, the “polymerase ribozyme fitness (log ratio)” value is -2.45. The figure for C93G C96A C105U C116U is -4.17; for C87U C131U it is 1.46; for C93A U104C it is -3.27. For G94U G100U, the “polymerase ribozyme fitness (log ratio)” value is -3.85.

C87U A89G C103U A115C C123U G143U: the “polymerase ribozyme fitness (log ratio)” value is at most -4.2.

In the case of G88A G92A C132G U148A, the “polymerase ribozyme fitness (log ratio)” value is at most -4.2. On to C87U C131A G140A, for which the “polymerase ribozyme fitness (log ratio)” value is -3.61. As for A89G G92C A97C C114U, the “polymerase ribozyme fitness (log ratio)” value is -3.82. Under G94U C125U G143U stands -4.16; under A91U C96U C103A U109C, at most -4.2. The figure for G88U C95G U144C is at most -4.2; for C93G A142G it is -3.81; for G94A U127G U146G it is -3.33. With A89C A107C, the “polymerase ribozyme fitness (log ratio)” value was -4.06. The figure for A89C A107U is at most -4.2; for A91U U104A G141A U148A it is at most -4.2. Under G92C U148G stands -3.89; under G92C U148C, -2.56. For the variant A91C C114U U139C, the “polymerase ribozyme fitness (log ratio)” value is at most -4.2. Turning to G92A G152U, the “polymerase ribozyme fitness (log ratio)” value is -3.58.

A89U C95A A97U U111G G124A C149A U151C: the “polymerase ribozyme fitness (log ratio)” value is at most -4.2.

With C87G C99U, the “polymerase ribozyme fitness (log ratio)” value is at most -4.2.

Regarding C87U C123U G126U, the “polymerase ribozyme fitness (log ratio)” value worked out at 0.848.

Take U90C G94U: the “polymerase ribozyme fitness (log ratio)” value was -3.46. Under C93A C105A stands at most -4.2; under G92U C96A U127C U145C A147C, at most -4.2. The figure for U90C A91U C114U C118U U144G is -4.15. As for C93A A97U, the “polymerase ribozyme fitness (log ratio)” value is -3.38.

For the variant C93A A97G, the “polymerase ribozyme fitness (log ratio)” value is -3.37. Under C93U A122U stands -0.696; under C93A C125A, -1.68. The figure for G94A G117C A137G is -3.09. Under A89U G94U stands -1.2; under C93A A137U, at most -4.2.

On to G86U G88A, for which the “polymerase ribozyme fitness (log ratio)” value is at most -4.2.

Regarding G94A A97G, the “polymerase ribozyme fitness (log ratio)” value was -2.19. Turning to G88A A147C, the “polymerase ribozyme fitness (log ratio)” value was -4.01. The figure for C93A U127C is -3.6; for C87A A91G C103U U135C it is at most -4.2.

G94U G141C U144G: the “polymerase ribozyme fitness (log ratio)” value is -1.83. Under A89U A97U U101A A107C A121C G140U U148G stands at most -4.2; under C87A G117C G136U G141U, at most -4.2. The figure for A89G C95A G136U is -3.75; for C87A A89U it is at most -4.2. Under G94C G100U stands -3.69; under A89C G143A, -0.0918. For C93A G124C, the “polymerase ribozyme fitness (log ratio)” value was -2.88. Under C95U A119U stands -0.544. Consider C95U A119G, for which the “polymerase ribozyme fitness (log ratio)” value turned out to be 0.353. The figure for G92U A138G is -3.48; for C87U C129G it is -2.63; for C93U A98G G124C it is -1.76. As for A91G C114A C116U A137C, the “polymerase ribozyme fitness (log ratio)” value is -3.79.

Regarding G94U U148C, the “polymerase ribozyme fitness (log ratio)” value is -2.92.

As for C87A U146G, the “polymerase ribozyme fitness (log ratio)” value is at most -4.2. The figure for G92A C105U G141C is -3.39; for G94A it is -0.622; for G94C it is -0.474. As to G94U, the “polymerase ribozyme fitness (log ratio)” value amounted to 1.12.

On to G88U A115C A120G, for which the “polymerase ribozyme fitness (log ratio)” value is -3.89.

On to G92C C99A A138C, for which the “polymerase ribozyme fitness (log ratio)” value was at most -4.2. Regarding G94A A115U, the “polymerase ribozyme fitness (log ratio)” value was -1.76. The figure for C95U C99A G117U U148A is at most -4.2; for A91G C95U C125U it is -4.09; for C93U U151A it is at most -4.2. As for C87G U144G, the “polymerase ribozyme fitness (log ratio)” value is at most -4.2. Under G86U G133A stands at most -4.2; under C93U C99A G128C, at most -4.2; under G92U U101G C131U, 0.547. Under C93A U148C stands -3.62; under C93A U148G, at most -4.2; under G88U C95U A121U A122G G124A, at most -4.2.

G94A A113U A120U: the “polymerase ribozyme fitness (log ratio)” value was -1.56.

Consider C87U U127A, for which the “polymerase ribozyme fitness (log ratio)” value was -3.2.

On to C87U G124A, for which the “polymerase ribozyme fitness (log ratio)” value is -0.0826. Under C87G C105A stands at most -4.2; under G92C C95A, -2.12.
